Data on five molecules can be found in patent US20230227571A1 (University of Pennsylvania, published 2023).

Experiment [1] concerns the target T1, human C5 (purified human complement C5, Complement Technology #A120; also C5 in normal human serum) (human, UniProt P01031 19-673; P01031 678-1676).
T1 construct: domain: β chain;domain: α chain; Purified plasma protein bought from Complement Technology; also called hC5
The experiment can be described thus: direct ELISA, plate coated with purified human C5, serially diluted mAb. An excerpt: Direct antigen binding ELISA in which mAbs are serially diluted across microtiter plates coated with purified human C5.

Experiment [2] addresses T1, human C5 (purified human complement C5, …). Description: ELISA, plate coated with human C5, anti-human IgG4-HRP detection. The text has this: A plate was coated with human C5.
Background: An ELISA detects its analyte on a solid surface through an enzyme-linked reagent.

T1 sequence (P01031 19-673 limits assumed, chain 1 of 2): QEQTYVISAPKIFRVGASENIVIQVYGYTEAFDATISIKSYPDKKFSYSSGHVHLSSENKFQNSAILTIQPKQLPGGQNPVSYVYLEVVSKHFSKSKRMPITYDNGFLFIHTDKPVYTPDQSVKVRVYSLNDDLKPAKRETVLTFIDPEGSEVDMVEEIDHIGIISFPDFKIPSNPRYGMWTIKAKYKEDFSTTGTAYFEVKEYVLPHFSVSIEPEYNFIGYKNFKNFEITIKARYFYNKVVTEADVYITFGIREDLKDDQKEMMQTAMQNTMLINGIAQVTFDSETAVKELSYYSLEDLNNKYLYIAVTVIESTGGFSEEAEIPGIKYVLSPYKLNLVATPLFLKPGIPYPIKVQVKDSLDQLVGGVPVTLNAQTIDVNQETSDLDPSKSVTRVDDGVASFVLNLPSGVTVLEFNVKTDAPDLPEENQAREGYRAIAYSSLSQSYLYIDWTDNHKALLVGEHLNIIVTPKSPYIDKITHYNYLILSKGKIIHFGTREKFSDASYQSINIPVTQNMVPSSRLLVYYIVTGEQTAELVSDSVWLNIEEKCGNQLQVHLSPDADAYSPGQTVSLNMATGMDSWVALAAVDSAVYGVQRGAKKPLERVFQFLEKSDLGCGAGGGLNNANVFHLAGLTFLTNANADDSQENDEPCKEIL
T1 sequence (P01031 678-1676 limits assumed, chain 2 of 2): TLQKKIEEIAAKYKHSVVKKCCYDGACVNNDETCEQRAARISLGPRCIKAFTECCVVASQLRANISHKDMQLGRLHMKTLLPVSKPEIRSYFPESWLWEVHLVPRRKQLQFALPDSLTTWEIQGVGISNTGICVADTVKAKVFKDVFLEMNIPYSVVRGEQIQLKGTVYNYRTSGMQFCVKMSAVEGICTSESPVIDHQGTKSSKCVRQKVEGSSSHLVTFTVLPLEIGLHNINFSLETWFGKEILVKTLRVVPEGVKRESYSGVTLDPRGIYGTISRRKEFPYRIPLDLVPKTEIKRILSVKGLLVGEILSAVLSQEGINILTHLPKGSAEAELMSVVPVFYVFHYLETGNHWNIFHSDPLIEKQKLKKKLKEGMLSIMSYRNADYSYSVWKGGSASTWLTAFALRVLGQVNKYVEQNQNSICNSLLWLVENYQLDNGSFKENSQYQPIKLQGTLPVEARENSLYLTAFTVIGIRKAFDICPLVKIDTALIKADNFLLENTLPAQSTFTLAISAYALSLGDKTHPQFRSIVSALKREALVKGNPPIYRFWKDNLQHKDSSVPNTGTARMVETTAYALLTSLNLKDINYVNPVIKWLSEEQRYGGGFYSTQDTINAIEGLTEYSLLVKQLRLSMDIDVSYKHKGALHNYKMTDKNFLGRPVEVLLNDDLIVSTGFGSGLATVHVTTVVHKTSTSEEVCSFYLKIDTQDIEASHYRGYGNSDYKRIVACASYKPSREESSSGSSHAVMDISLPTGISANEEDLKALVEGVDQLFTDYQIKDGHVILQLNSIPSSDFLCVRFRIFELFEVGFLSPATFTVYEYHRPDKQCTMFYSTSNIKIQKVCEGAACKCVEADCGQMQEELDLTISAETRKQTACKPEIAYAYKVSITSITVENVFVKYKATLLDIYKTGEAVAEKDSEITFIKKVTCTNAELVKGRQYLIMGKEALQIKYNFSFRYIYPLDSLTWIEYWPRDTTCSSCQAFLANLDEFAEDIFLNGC

B1: anti-human C5 mAb 9G6 (antibody, V domains shown)
VH: QIQLVQSGPELKKPGETVKISCKASGYTFTEYPMHWVKQAPGKSFKWMGILYTDTGEPTYAEEFRGRFAFSLETSASTAYLQINNLKNEDTATYFCVHSGYVGYWGQGTTLTVSS
VL: DIQMTQSPASLSASVGETVTFTCRASEIIYSYLVWYQQKQGKSPQLLVSNAKTLAEGVPSRFSGSGSGTQFSLKINSLQPEDFGSYYCQHYYGNPPTFGGGTKLEIKR
notes: Murine hybridoma mAb; entries may include the leader peptide
B1: in experiment [1], the binding result was “binds”.

B2: humanized 2G1 (VH-11801/VL-1901) (antibody, V domains shown)
VH: QVQLVQSGAEVKKPGASVKVSCKASGYTITDYNLDWVRQAPGQGLEWMGDISPNYGYTIYNQKFKDRVTMTTDTSTSTAYMELRSLRSDDTAVYYCARRDIRYSGNSYKWYFDVWGQGTMVTVSS
VL: DIQLTQSPSFLSASVGDRVTITCRTSKSISKYLAWYQQKPGKAPKLLIYSGSTLQSGVPSRFSGSGSGTEFTLTISSLQPEDFATYYCQQHNEYPYTFGQGTKLEIKT
notes: Human IgG4 mAb with S228P, expressed in CHO cells
B2: the binding result in experiment [2] was “binds”.

B3: humanized 2G1 (VH-16901/VL-1901) (antibody, V domains shown)
VH: QVQLVQSGAEVKKPGSSVKVSCKASGYTITDYNLDWVRQAPGQGLEWMGDISPNYGYTIYNQKFKDRVTITADESTSTAYMELSSLRSEDTAVYYCARRDIRYSGNSYKWYFDVWGQGTMVTVSS
VL: DIQLTQSPSFLSASVGDRVTITCRTSKSISKYLAWYQQKPGKAPKLLIYSGSTLQSGVPSRFSGSGSGTEFTLTISSLQPEDFATYYCQQHNEYPYTFGQGTKLEIKT
notes: as for B2
Take B3: in experiment [2], the binding result is “binds”.

B4: anti-human C5 mAb 11C5 (antibody, V domains shown)
VH: EVQLVESGGGLVKPGGSLKLSCAASGFTFTTYAMSWVRQTPEKRLEWVATISAGGTYTYYSDNVKGRFTISRDNAKNNLYLQMSHLKSEDTAMFYCARDPDYYGRSPFAYWGQGTLVTVSA
VL: EIVLTQSPATLSVTPGESVSLSCRASQSISNNLQWYQQKSHESPRLLIKYASQSISGIPSRFSGSGSGTDFTLSINSVETEDFGMYFCQQSNSWPLTFGGGTKVELKR
notes: as for B1
As to B4, the binding result in experiment [1] was “binds”.

B5: anti-human C5 mAb 8E1 (antibody, V domains shown)
VH: QVQLKESGPGLVAPSQSLSITCTVSGFPLNNYGIHWVRQPPGKGLEWLAVIWSDGRTTYNSALNSRLSISKDNSKSQVFFKMNSLQTDDTAMYYCARHDGRGDYSMDYWGQGTSVTVSS
VL: ELVMTQSPASLVVSLGQRATISCRASKGVSTSVYSYMHWYQQKPGQPPKLLIYLASNLESGVPARFSGSGSGTDFSLNIHPVEEEDAATYYCQQSGELPLTFGAGTKLELKR
notes: as for B1
Take B5: the binding result in experiment [1] was “binds”.
